Target: Soluble human VCAM-1 IgG fusion protein (immobilized on coverslips) (human) (UniProt P19320)
Assay: cell-based or functional assay

UniProt P19320, sequence (P19320 25-698 limits assumed): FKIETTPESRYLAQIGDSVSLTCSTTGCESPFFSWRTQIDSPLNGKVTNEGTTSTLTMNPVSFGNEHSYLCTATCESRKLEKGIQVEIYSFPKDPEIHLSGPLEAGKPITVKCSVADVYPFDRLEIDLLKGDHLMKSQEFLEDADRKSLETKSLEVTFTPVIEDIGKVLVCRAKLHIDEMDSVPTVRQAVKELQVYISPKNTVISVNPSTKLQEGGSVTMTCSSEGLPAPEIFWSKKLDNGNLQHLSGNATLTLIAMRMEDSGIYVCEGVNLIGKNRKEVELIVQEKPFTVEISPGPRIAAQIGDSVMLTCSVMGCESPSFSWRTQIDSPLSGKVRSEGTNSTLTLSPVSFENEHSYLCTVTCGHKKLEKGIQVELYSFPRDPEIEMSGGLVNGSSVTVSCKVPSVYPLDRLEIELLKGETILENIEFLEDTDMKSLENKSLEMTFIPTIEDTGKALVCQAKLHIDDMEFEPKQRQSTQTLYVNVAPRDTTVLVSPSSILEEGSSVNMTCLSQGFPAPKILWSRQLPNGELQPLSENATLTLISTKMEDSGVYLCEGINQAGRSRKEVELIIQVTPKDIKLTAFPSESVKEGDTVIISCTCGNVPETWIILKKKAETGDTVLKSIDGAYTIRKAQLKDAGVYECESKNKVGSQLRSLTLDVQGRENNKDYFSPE

For “VLA-4 integrin (on CD4+ naive and memory T cells) (from UniProt P13612 34-1032; P05556 21-798) (receptor)”, the memory CD4+ T cell accumulation on immobilized VCAM-1 under flow; inhibition by pretreatment with CKβ-13 was 42 to 72%.

Source: patent US20030143696A1
